Assay [1] has as its target T1, human Mpl expressed on BaF3 cells (BaF3-human Mpl) (human, UniProt P40238 26-635).
T1 sequence: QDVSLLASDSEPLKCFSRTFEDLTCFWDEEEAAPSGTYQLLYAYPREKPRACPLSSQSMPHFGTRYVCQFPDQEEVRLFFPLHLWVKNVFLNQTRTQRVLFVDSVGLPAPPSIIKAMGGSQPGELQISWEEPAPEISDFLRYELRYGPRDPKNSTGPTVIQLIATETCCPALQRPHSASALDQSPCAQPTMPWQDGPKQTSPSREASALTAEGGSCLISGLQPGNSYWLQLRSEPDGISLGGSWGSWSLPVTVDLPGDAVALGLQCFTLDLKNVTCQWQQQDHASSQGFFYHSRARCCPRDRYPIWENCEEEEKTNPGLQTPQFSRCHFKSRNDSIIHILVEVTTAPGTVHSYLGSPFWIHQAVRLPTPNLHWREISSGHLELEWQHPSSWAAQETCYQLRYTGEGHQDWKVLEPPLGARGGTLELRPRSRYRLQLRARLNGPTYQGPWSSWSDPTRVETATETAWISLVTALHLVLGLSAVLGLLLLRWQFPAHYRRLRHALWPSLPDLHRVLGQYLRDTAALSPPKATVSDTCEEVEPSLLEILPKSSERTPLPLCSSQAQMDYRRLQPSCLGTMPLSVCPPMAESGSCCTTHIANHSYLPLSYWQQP
Briefly: cell-based or functional assay.

Assay [2] has as its target T2, cynomolgus monkey Mpl expressed on CHO cells (CHO-monkey Mpl) (cynomolgus monkey, UniProt P40238 26-635 (human entry)).
T2 construct: pCXND3-monkey Mpl-His in CHO-DG44; also called monkey Mpl-His
T2 chain: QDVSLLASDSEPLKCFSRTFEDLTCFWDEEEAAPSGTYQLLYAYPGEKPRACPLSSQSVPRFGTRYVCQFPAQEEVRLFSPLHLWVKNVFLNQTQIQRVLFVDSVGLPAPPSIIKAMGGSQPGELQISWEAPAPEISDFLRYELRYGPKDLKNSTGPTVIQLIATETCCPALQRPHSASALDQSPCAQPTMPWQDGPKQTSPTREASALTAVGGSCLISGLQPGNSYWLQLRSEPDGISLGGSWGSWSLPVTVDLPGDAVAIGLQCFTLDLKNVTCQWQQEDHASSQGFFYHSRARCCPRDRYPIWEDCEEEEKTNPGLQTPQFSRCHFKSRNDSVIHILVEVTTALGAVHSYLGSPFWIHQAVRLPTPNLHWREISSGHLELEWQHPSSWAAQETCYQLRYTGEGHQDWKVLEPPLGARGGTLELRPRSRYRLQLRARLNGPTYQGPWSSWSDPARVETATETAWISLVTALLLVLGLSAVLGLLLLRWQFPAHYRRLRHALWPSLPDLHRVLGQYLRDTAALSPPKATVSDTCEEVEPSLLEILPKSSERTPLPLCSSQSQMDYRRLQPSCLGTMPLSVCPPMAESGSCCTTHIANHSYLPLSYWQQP
The assay can be described thus: flow cytometry on CHO cells. For orientation: In flow cytometry, cells or beads pass a laser one at a time.

The target in assay [3] is T3, human Mpl-IgG Fc fusion protein (human, UniProt P40238 26-491).
T3 construct: Expressed in CHO-DG44 with a 19-residue signal peptide from a human IgG H chain variable region (left out); also called hMpl-Fc; hMPL-Fc; not shown: Fc region of human IgG-gamma1 (a region downstream of Asp 216)
T3 sequence: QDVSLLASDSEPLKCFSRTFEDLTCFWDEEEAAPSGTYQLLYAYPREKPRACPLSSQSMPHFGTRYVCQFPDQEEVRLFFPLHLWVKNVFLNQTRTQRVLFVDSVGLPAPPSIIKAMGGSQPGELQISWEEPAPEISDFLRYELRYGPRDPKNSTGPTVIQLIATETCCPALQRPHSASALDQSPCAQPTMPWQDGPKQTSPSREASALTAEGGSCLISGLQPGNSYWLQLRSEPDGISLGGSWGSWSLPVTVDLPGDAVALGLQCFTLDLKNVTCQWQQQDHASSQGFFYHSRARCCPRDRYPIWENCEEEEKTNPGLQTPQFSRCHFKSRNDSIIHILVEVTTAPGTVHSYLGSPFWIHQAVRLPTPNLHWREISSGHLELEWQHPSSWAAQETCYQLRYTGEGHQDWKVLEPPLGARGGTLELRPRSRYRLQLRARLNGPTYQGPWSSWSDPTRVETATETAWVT
Briefly: SPR, Biacore 2000, human Mpl-IgG Fc immobilized on CM5 by amine coupling, 1.25 to 20 µg/mL VB22B IgG injected. The protocol: Since the anti-human Mpl antibody VB22B binds to soluble recombinant Mpl, kinetic analyses of the antigen-antibody reaction between VB22B IgG and human Mpl-IgG Fc fusion protein were carried out as described in Example 1.4. The Sensor Chip CM5 (Biacore) was placed in Biacore 2000 (Biacore), and human Mpl-IgG Fc fusion protein was immobilized onto the chip by amine-coupling methods. Then, 1.25 to 20 μg/mL of VB22B IgG solution was prepared using HBS-EP Buffer (Biacore), and injected over the chip surface for 2 min to reveal the binding region. Then, HBS-EP Buffer was injected over the chip surface for 2 min to reveal the dissociation region. VB22B IgG bound to the human Mpl-IgG Fc fusion protein on the sensor chip was removed by injecting 10 mM NaOH over the sensor chip for 15 sec, and the chip was recovered. HBS-EP Buffer was used as the running buffer, and the flow rate was 20 μL/min. Using the BIAevaluation Version 3.1 (Biacore) software, the reaction rate constant at each concentration was calculated from the sensorgrams.

B1: anti-human Mpl antibody VB22B IgG (antibody, V domains shown)
VH: QVQLQQSGPELVKPGASVKISCKASGYAFTNSWMNWVKQRPGKGLEWIGRIYPGDGETIYNGKFRVKATLTADKSSSTAYMDISSLTSEDSAVYFCARGYDDYSFAYWGQGTLVTVSA
VL: DIVMTQAAPSIPVTPGESVSISCRSSKSLLHSNGNTYLYWFLQRPGQSPQLLIYRMSNLASGVPDRFSGSGSGTAFTLRISRVEAEDVGVYYCMQHIEYPFTFGSGTKLEIK
notes: also called murine antibody VB22B
What is called Kd is the concentration at which binding is half-saturated. Take B1: the “TPO-like agonistic activity, EC50 (growth of BaF3-human Mpl, WST-8)” value in assay [1] is above 30 nM. In assay [2], the binding result was “binds”. For the same molecule, the affinity in assay [3], expressed as Kd, was 1.67 nM.

The values above are taken from patent US20060222643A1 (Chugai, published 2006).
